# Key:
# [1] = biological target: Rvb1/his-Rvb2 complex (S. cerevisiae) (UniProt Q03940); experiment: native MS
# [2] = biological target: Rvb1ΔDII/Rvb2ΔDII complex (S. cerevisiae) (UniProt Q03940); experiment: native MS
# Rvb1ΔDII/Rvb2ΔDII complex, sequence (Q03940 whole entry, stated change not applied): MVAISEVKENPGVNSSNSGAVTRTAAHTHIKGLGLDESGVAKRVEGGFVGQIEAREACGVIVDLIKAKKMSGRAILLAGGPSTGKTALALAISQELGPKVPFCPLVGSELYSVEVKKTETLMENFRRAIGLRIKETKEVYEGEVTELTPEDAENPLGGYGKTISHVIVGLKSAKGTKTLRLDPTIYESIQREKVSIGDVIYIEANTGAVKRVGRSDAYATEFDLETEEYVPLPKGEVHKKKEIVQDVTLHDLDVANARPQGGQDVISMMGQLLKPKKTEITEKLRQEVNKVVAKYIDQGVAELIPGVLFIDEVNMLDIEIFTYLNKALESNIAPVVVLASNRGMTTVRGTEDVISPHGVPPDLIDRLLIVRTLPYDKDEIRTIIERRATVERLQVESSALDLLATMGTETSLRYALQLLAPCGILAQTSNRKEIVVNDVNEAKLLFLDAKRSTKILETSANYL
# Rvb1ΔDII/Rvb2ΔDII complex, sequence (Q12464 whole entry, stated change not applied): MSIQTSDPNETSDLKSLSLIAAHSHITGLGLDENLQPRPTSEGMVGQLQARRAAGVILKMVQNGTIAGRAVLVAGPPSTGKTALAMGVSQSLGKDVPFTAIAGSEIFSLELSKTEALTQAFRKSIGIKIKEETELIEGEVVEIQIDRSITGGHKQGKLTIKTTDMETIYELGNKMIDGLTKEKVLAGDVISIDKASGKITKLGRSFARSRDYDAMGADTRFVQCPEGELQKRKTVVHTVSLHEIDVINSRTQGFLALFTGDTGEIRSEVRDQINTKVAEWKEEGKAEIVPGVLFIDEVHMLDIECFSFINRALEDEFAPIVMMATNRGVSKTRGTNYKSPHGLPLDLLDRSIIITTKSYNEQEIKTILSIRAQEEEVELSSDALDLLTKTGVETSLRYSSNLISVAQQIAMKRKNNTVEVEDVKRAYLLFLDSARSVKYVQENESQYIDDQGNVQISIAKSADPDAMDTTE
percent of hexamers in the population [1],percent of the dodecamer dissociated into hexamers [1],percent of dodecamer in the population [2],Substance
0%,14%,–,Rvb1/his-Rvb2 complex (from UniProt Q03940 1-463; Q12464 1-471)
–,–,3%,Rvb1ΔDII/Rvb2ΔDII complex (from UniProt Q03940 1-463; Q12464 1-471)

# From PMC5564220
